Key:
[1] = system: P69949; experiment: AUC; sedimentation velocity of Str. enolase alone, TME-SO4, 20°C, 37000 rpm; c(s) distribution, percent octamer and monomer; octamer to monomers and other species
[2] = target: Str. enolase DB (Streptococcus pyogenes) (UniProt P69949); experiment: as above
[3] = target: Str. enolase DB no hexa-his tag (Streptococcus pyogenes) (UniProt P69949); experiment: as above
[4] = target: Str. enolase F137L/E363G (Streptococcus pyogenes) (UniProt P69949); experiment: AUC; sedimentation velocity of Str. enolase alone in different buffers (KPi with or without Mg(II), NaCl, imidazole; TME-SO4); octamer to monomers, dimers, tetramers
[5] = target: Str. enolase DB (Streptococcus pyogenes) (UniProt P69949); experiment: AUC; sedimentation velocity, 20°C, 37000 rpm, TME-SO4; DPgn alone, Str. enolase alone and the mixture at the same concentrations; shift of the s value of the DPgn peak (Sedfit c(s), DCDT+)
[6] = target: Str. enolase 137/363–4 (Streptococcus pyogenes) (UniProt P69949); experiment: SPR; localized SPR (Nicoya OpenSPR); hexa-his-tagged Str. enolase 137/363–4 immobilised on a Ni-NTA chip, DPgn injected at successive concentrations in duplicate, ovalbumin as control; Pi, imidazole, NaCl buffer; close to 27 °C; one to two model (TraceDrawer 1.5)
[7] = target: Str. enolase 137/363–4 (Streptococcus pyogenes) (UniProt P69949); experiment: AUC; sedimentation velocity, TME-SO4, 20°C; five concentrations of 137/363–4 (1-11.7 μM) and DPgn (0.43-4.2 μM); global fit to an equilibrium constant in Sedphat
[8] = target: Str. enolase 137/363–2 K252A K255A (Streptococcus pyogenes) (UniProt P69949); experiment: dual polarization interferometry (DPI); Str. enolase adsorbed first on an unmodified silicon oxynitride chip, then DPgn injected; 3 μM each protein, 8 min injections, 25 μL/min/channel, 20°C; proteins in TME-SO4, wash buffer 10 mM phosphate
[9] = target: Str. enolase DB (Streptococcus pyogenes) (UniProt P69949); experiment: as above

Str. enolase 137/363–2 K252A K255A
% monomer (from AUC) [1]: 70.4%

Str. enolase DB
% monomer (from AUC) [1]: 0.4 (nil?)

Str. enolase DB (from UniProt P69949 1-435) (enzyme)
% octamer (from AUC) [2]: 88%
stoichiometry N [2]: 8

Str. enolase DB no hexa-his tag
% monomer (from AUC) [1]: 1.3%

Str. enolase DB no hexa-his tag (from UniProt P69949 1-435) (enzyme)
% octamer (from AUC) [3]: 81.6%

Str. enolase F137L/E363G (from UniProt P69949 1-435) (enzyme)
stoichiometry N [4]: 8

canine plasminogen (natural protein)
Ka [5]: < 10000 M⁻¹
KD1 (site 1 of a one to two model) [6]: 1.34 µM
KD2 (site 2 of a one to two model) [6]: 2.66 µM
ka1 (site 1 of a one to two model) [6]: 1300
ka2 (site 2 of a one to two model) [6]: 9600
kd1 (site 1 of a one to two model) [6]: 0.0017
kd2 (site 2 of a one to two model) [6]: 0.026
stoichiometry N (DPgn per enolase monomer) [6]: 1.6
Ka [7]: 340000 M⁻¹
Kd [7]: 3000 nM
mass of enolase + DPgn layer [8]: 5.3 ng/mm^2
mass of enolase + DPgn layer [9]: 2.8 ng/mm^2

— PMC6336276
